PMC5383250

How the values were obtained:
[1] = target: E. faecalis RNase J1 (Enterococcus faecalis (strain OG1RF)); experiment: SPR; Biacore T100; E. faecalis RNase J1 immobilized on a CM5 sensor surface; J2 proteins 400 to 50 nM in duplicate; fitted to the 1:1 binding model
[2] = target: RNase J2 (Bacillus subtilis) (UniProt O31760); conditions: cited from earlier work

Chain of RNase J1 (Q45493 whole entry): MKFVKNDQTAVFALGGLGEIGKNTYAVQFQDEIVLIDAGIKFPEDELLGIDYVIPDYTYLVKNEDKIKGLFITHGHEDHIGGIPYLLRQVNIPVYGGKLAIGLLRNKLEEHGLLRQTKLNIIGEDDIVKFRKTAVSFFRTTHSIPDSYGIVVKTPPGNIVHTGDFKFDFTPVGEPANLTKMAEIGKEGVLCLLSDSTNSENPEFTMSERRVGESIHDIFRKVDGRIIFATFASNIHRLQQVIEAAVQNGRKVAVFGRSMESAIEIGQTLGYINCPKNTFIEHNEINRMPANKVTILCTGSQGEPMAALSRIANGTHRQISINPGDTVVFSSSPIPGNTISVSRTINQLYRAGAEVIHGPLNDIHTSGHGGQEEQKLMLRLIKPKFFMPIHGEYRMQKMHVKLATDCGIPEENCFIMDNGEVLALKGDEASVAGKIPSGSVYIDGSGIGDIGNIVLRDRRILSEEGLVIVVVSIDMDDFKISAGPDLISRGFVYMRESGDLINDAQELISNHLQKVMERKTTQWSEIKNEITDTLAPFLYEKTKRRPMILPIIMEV

Row | Substance | Kd [1] | Kd [2]
1 | E. faecalis RNase J2 H69A (enzyme) | 81 nM | –
2 | E. faecalis RNase J2 H71A (enzyme) | 89 nM | –
3 | RNase J1 (from UniProt Q45493) | – | 80 nM
